The source of these data is publication PMC2615049.

Broadly, the pKd is the Kd on a negative log10 scale, so that one unit is a factor of ten.

The target in experiment [1] is Bovine cationic trypsin (bovine). Nature of the experiment: ITC.
Experiment [2] has the same target. Kind of experiment: equilibrium titration with spectrophotometric assay of residual free trypsin.

pKd: −log10 of the molar value.

With “C14S/C38S BPTI variant (natural protein)”, in experiment [1], the dH (enthalpy of dissociation, ΔHd, at 25 °C, HEPES buffer) came out at 10.6 kcal/mol.
The substance C14S BPTI variant (natural protein) showed a pKd in experiment [2] of 9.77.
